# Measured values as given in the supplement of paper PMC9112550, “Optimization of the antimicrobial peptide Bac7 by deep mutational scanning” (BMC Biology, 2022).
# Tested on: Escherichia coli TOP10
# Assay: shrunken log2 fold change of peptide-encoding DNA abundance (4.5 h post-induction vs induction); higher = less antimicrobial activity (less host growth inhibition)
# Details: time post-induction: 4.5 h; library: site-saturation at positions 5, 18, 19, 20
# 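Also: peptides expressed intracellularly from a pBAD plasmid library in pooled LB shake-flask culture, induced with 0.3% L-arabinose, DNA abundance read by NGS, three biological replicates, DESeq2 with apeglm shrinkage.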
row,Sequence,shrunken log2 fold change
1,RRIRLRPPRLPRPRPRPAIDPRP,-0.283
2,RRIRNRPPRLPRPRPRPTHAPRP,0.337
3,RRIRGRPPRLPRPRPRPGKWPRP,0.566
4,RRIRSRPPRLPRPRPRPSERPRP,0.245
5,RRIRPRPPRLPRPRPRPNQQPRP,0.0352
6,RRIRLRPPRLPRPRPRPIMEPRP,-0.193
7,RRIRSRPPRLPRPRPRPIEEPRP,0.0156
8,RRIRFRPPRLPRPRPRPKAEPRP,0.00911
9,RRIRFRPPRLPRPRPRPHMKPRP,-0.585
10,RRIRRRPPRLPRPRPRPLMVPRP,-0.161
11,RRIRYRPPRLPRPRPRPFHHPRP,-1.19
12,RRIRSRPPRLPRPRPRPVYEPRP,-0.617
13,RRIRHRPPRLPRPRPRPHPEPRP,0.0129
14,RRIRWRPPRLPRPRPRPAITPRP,0.188
15,RRIRTRPPRLPRPRPRPEKPPRP,0.0634
16,RRIRFRPPRLPRPRPRPSSTPRP,-0.325
17,RRIRLRPPRLPRPRPRPLHTPRP,-0.289
18,RRIRARPPRLPRPRPRPWDGPRP,0.72
19,RRIRIRPPRLPRPRPRPNGMPRP,-0.0985
20,RRIRSRPPRLPRPRPRPYDYPRP,-0.305
21,RRIRARPPRLPRPRPRPAGCPRP,0.648
22,RRIRERPPRLPRPRPRPDTWPRP,-0.295
23,RRIRYRPPRLPRPRPRPELSPRP,0.0544
24,RRIRNRPPRLPRPRPRPTHIPRP,-0.0851
25,RRIRQRPPRLPRPRPRPMDAPRP,0.05

row,Sequence,shrunken log2 fold change
1,RRIRSRPPRLPRPRPRPNNEPRP,-0.631
2,RRIRPRPPRLPRPRPRPGWWPRP,0.356
3,RRIRRRPPRLPRPRPRPVEGPRP,0.268
4,RRIRIRPPRLPRPRPRPEARPRP,0.312
5,RRIRQRPPRLPRPRPRPIRPPRP,0.0227
6,RRIRHRPPRLPRPRPRPVFQPRP,-0.0932
7,RRIRDRPPRLPRPRPRPCRCPRP,0.0101
8,RRIRERPPRLPRPRPRPKFPPRP,0.0509
9,RRIRDRPPRLPRPRPRPSSVPRP,-0.0994
10,RRIRARPPRLPRPRPRPMYHPRP,-0.215
11,RRIRKRPPRLPRPRPRPSWEPRP,0.153
12,RRIRDRPPRLPRPRPRPSYMPRP,-0.111
13,RRIRERPPRLPRPRPRPNQWPRP,0.062
14,RRIRDRPPRLPRPRPRPHVRPRP,-0.12
15,RRIRYRPPRLPRPRPRPICAPRP,-0.211
16,RRIRPRPPRLPRPRPRPKTQPRP,-0.02
17,RRIRIRPPRLPRPRPRPDAPPRP,0.14
18,RRIRKRPPRLPRPRPRPEAHPRP,0.151
19,RRIRRRPPRLPRPRPRPHIKPRP,-0.43
20,RRIRKRPPRLPRPRPRPENGPRP,0.0267
21,RRIRYRPPRLPRPRPRPSQFPRP,-0.257
22,RRIRWRPPRLPRPRPRPSTHPRP,0.667
23,RRIRLRPPRLPRPRPRPCVAPRP,0.238
24,RRIRFRPPRLPRPRPRPNIDPRP,-0.463
25,RRIRDRPPRLPRPRPRPYEHPRP,0.077

row,Sequence,shrunken log2 fold change
1,RRIRQRPPRLPRPRPRPFCHPRP,0.00489
2,RRIRPRPPRLPRPRPRPCKWPRP,-0.32
3,RRIRQRPPRLPRPRPRPDCVPRP,-0.0384
4,RRIRGRPPRLPRPRPRPKGTPRP,0.294
5,RRIRLRPPRLPRPRPRPLATPRP,0.38
6,RRIRRRPPRLPRPRPRPFMSPRP,-0.327
7,RRIRKRPPRLPRPRPRPQGIPRP,0.114
8,RRIRHRPPRLPRPRPRPVPFPRP,-0.136
9,RRIRFRPPRLPRPRPRPRRCPRP,0.143
10,RRIRCRPPRLPRPRPRPTEEPRP,0.325
11,RRIRSRPPRLPRPRPRPQDSPRP,-0.164
12,RRIRQRPPRLPRPRPRPDRVPRP,0.00438
13,RRIRLRPPRLPRPRPRPCRPPRP,-0.0863
14,RRIRLRPPRLPRPRPRPCSKPRP,-0.0788
15,RRIRMRPPRLPRPRPRPGNAPRP,0.573
16,RRIRKRPPRLPRPRPRPHCGPRP,-0.0593
17,RRIRERPPRLPRPRPRPPVMPRP,0.0499
18,RRIRPRPPRLPRPRPRPFTPPRP,-0.112
19,RRIRERPPRLPRPRPRPKPVPRP,0.173
20,RRIRPRPPRLPRPRPRPIKLPRP,-0.0641
21,RRIRPRPPRLPRPRPRPPGFPRP,0.847
22,RRIRLRPPRLPRPRPRPNKLPRP,-0.307
23,RRIRYRPPRLPRPRPRPHPSPRP,0.0761
24,RRIRYRPPRLPRPRPRPHRSPRP,-0.017
25,RRIRYRPPRLPRPRPRPNSIPRP,-0.737
